Measurements taken from US20230382979A1 (ADAPTIVE BIOTECHNOLOGIES, published 2023).

Columns and labels:
[1] = target: T1, SARS-CoV-2 spike (S) protein trimer, WA01/2020 strain (SARS-CoV-2, WA01/2020 strain, UniProt P0DTC2 16-1213); experiment: ELISA screening, antibody concentration not given
[2] = target: T2, SARS-CoV-2 nucleocapsid (N) protein (SARS-CoV-2, UniProt P0DTC9 1-419); experiment: ELISA screening, antibody concentration not given
[3] = target: T3, S1 subunit of the SARS-CoV-2 spike protein, WA01/2020 strain (SARS-CoV-2, WA01/2020 strain, UniProt P0DTC2 16-685); experiment: ELISA screening, antibody concentration not given
[4] = target: T4, S2 subunit of the SARS-CoV-2 spike protein, WA01/2020 strain (SARS-CoV-2, WA01/2020 strain, UniProt P0DTC2 686-1213); experiment: ELISA screening, antibody concentration not given
[5] = target: T1, SARS-CoV-2 spike (S) protein trimer, …; experiment: dose-response ELISA on coated spike antigen
[6] = target: T5, MERS-COV (S2); experiment: dose-response ELISA on coated spike antigen
T5 chain: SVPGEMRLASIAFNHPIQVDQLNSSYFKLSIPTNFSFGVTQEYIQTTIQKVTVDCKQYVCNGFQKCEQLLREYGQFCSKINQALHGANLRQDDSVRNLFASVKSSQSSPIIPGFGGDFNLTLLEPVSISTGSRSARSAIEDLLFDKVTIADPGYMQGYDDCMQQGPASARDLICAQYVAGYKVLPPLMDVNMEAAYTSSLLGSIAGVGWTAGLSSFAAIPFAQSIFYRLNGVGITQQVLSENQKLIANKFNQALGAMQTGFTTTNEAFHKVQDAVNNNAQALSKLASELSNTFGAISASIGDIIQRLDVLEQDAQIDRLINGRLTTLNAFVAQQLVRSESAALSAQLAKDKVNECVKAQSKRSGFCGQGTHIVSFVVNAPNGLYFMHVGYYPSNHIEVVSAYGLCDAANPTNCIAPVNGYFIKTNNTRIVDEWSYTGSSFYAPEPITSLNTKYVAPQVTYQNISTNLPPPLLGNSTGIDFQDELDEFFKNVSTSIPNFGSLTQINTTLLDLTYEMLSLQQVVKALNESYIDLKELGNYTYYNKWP

[7] = target: T6, MERS-COV (S1+S2); experiment: dose-response ELISA on coated spike antigen
T6 chain: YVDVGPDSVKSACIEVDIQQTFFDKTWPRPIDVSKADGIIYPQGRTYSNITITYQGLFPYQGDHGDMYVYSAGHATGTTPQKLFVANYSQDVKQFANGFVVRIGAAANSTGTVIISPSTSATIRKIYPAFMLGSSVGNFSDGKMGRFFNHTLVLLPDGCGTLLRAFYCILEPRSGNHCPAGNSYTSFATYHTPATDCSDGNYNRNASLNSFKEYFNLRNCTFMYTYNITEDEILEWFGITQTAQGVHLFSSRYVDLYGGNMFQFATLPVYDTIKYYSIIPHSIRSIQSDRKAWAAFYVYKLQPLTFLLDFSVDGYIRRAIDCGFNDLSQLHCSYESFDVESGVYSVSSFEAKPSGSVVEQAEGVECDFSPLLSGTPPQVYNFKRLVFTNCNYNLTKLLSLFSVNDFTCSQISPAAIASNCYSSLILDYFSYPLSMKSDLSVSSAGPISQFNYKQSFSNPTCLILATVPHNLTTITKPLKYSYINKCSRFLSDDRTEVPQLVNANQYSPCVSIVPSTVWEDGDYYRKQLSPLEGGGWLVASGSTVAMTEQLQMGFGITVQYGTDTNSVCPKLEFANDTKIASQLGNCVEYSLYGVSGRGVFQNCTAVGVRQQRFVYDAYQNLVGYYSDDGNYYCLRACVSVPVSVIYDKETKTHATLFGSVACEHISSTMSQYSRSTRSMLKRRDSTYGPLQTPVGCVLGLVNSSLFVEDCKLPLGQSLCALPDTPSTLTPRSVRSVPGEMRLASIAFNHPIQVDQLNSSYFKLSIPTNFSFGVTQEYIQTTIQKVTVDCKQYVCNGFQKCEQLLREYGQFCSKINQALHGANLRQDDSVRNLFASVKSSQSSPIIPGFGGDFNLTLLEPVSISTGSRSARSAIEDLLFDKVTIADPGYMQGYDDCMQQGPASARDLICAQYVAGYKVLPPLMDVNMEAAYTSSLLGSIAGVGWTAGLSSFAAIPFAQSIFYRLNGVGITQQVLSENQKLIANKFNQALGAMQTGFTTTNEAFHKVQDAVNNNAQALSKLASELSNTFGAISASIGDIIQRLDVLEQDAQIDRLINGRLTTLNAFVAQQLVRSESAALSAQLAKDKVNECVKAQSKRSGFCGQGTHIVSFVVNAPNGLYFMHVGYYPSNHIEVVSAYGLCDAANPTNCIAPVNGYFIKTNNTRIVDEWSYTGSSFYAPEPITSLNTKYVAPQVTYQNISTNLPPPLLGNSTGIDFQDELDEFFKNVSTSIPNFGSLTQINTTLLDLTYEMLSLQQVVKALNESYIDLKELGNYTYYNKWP

[8] = target: SARS-CoV (2003) spike protein borne on lentiviral pseudovirus (SARS-CoV (2003), UniProt P59594 14-1255); experiment: cell-based or functional assay
[9] = target: SARS-CoV-2 spike protein, WA1/2020, borne on lentiviral pseudovirus (SARS-CoV-2, WA01/2020 strain, UniProt P0DTC2 14-1273); experiment: cell-based or functional assay
[10] = target: T3, S1 subunit of the SARS-CoV-2 spike …; experiment: dose-response ELISA
[11] = target: T1, SARS-CoV-2 spike (S) protein trimer, …; experiment: dose-response ELISA on coated antigen
[12] = target: T1, SARS-CoV-2 spike (S) protein trimer, …
[13] = target: T2, SARS-CoV-2 nucleocapsid (N) protein; experiment: ELISA, antibody at 0.1 ug/mL
[14] = target: T4, S2 subunit of the SARS-CoV-2 spike …; experiment: ELISA, antibody at 0.1 ug/mL
[15] = target: T2, SARS-CoV-2 nucleocapsid (N) protein; experiment: ELISA, antibody at 0.1 ug/mL; remark: listed apart in the source
[16] = target: T3, S1 subunit of the SARS-CoV-2 spike …; experiment: dose-response ELISA on coated antigen
[17] = target: T4, S2 subunit of the SARS-CoV-2 spike …; experiment: dose-response ELISA on coated spike antigen
[18] = target: T3, S1 subunit of the SARS-CoV-2 spike …

B1: antibody 1915 (antibody, V domains shown)
VH: QVQLVESGGGVVQPGRSLRLSCAASGFTFSSYAMHWVRQAPGKGLEWVAVISYDGSNKYYADSVKGRFTISRDNSKNTLYLQMDSLRAQDTAVYYCATPRDMFSSGWSSPFDYWGQGTLVTVSS
VL: DIQMTQSPSSLSASVGDRVTITCQASQDISIYLTWYQQKPGKAPKLLIYGASNLEVEVPSRFSGSGSGTEFTLTISSLQPEDFATYFCQHSDDLPVTFGGGTKVEVK
binding result [1]: no binding (tested: not printed) | binding result [2]: no binding (tested: not printed) | binding result [3]: no binding (tested: not printed) | binding result [4]: no binding (tested: not printed)

B2: antibody 1439 (antibody, V domains shown)
VH: QVQLQESGPGLVKPSETLSLTCTVSGDSISTYYWSWIRQPPGKGLEWIGYIHYSGSTNYNPSLKSRVAVSVDTSKNQFSLKLSSVTAADTAVYYCARGGGVFGVVINFDYWGQGILVTVSS
VL: NFMLTQPYSVSESPGKTVTISCTRSSGSIASNYVQWYQQRPGSAPTTVIYEDNQRPSGVPDRFSGSIDSSSNSASLTISGLKTEDEADYYCQSRDSSNPVVFGGGTKLTVL
EC50 (read off the curve) [5]: ~0.1 µg/mL | binding result [6]: no binding (tested: 10000 ng/ml) | binding result [7]: no binding (tested: 10000 ng/ml) | Pseudo Neut, SARS-CoV 2003 IC50 [8]: 29 nM | Pseudo Neut, WA1/2020 IC50 (pM) [9]: 30200 pM

B3: antibody 1959 (antibody, V domains shown)
VH: QVQLVQSGTEVKKPGSSVRVSCQASGDTFTSHAIIWIRQAPGQGLEYLGRIIPVLDITNAAQRFLGRLTLTADKSTTTAYMELSSLRSEDTAVYYCARAPFGLIVMYDHWGQGTLVTVTA
VL: EIVLTQSPGTLSLSPGERATLSCRASQSVSGNFLAWYQQKPGQAPRLLIHETSKRATGIPDRVSGGGSGTDFTLTISRLEPEDFAVYHCQQYGTTAVTFGQGTRLDMK
binding result [1]: no binding (tested: not printed) | binding result [2]: no binding (tested: not printed) | binding result [3]: no binding (tested: not printed) | binding result [4]: no binding (tested: not printed)

B4: antibody 2606 (antibody, V domains shown)
VH: EVQLVESGGGLVKPGGSLRLSCAASGFTFSSYSMNWVRQAPGKGLEWVSSITSSSGYMYYADSVKGRFTISRDNAKNSLYLQLNSLRAEDTAVYYCAKDSAFDLWEVRSYYYVMDVWGQGTTVTVSS
VL: not shown
binding result [10]: no binding | EC50 [11]: 0.057 nM | Kd [12]: 0.00787 nM

B5: antibody 1589 (antibody, V domains shown)
VH: EVQLVESGGGLIQVGGSLRLSCAASGLTVTSNYMNWVRQGPGKGLEWVSLIYSGGTTYYADSVKGRFTISRDDSKNTLYLQMNSLRAEDTAVYYCARPIVGARSGMDVWGQGTAVTVSS
VL: DIQMTQSPSSLSASVGDRVTITCQASQDINKYLNWYQQKPGKAPKLLIYDASNLETGVPSRFSGSGSGTDFTFTISSLQPEDLATYYCHQFDNLPGTFGGGTKVEIK
binding result [13]: no binding (tested: 0.1 ug/mL) | binding result [14]: no binding (tested: 0.1 ug/mL) | binding result [6]: no binding (tested: 10000 ng/ml) | binding result [7]: no binding (tested: 10000 ng/ml) | Pseudo Neut, WA1/2020 IC50 (pM) [9]: 1170 pM

B6: antibody 2432 (antibody, V domains shown)
VH: QVQLVQSGAEVKKPGSSVKVSCKASGDTFSSYAISWVRQAPGQGLEWLGGIIPIFGSADYAQKFQGRVTITADEFTSTAYMELSSLRSEDTAVYFCAREKYGDYGEGPLYNFDYWGQGTLVTVSS
VL: not shown
binding result [10]: no binding | EC50 [11]: 0.024 nM | Kd [12]: 0.243 nM

B7: antibody 2793 (antibody, V domains shown)
VH: QVQLVQSGAEVKKPGASVKVSCKVSGFTLPELSIHWVRQAPGKGLEWMGGFDPEDAKTIYAQKFQGRVTMTEDTSTDIAYMELNSLRSDDTAVYYCATGSPFGVVGNWLDPWGQGTLVTVSS
VL: QSALTQPASVSGSPGQSITISCTGTSSDVGDFSYVSWYQQHPGKAPKLMIYEVTKRPSGVSNRFSGSKSGNTASLTISGLQTEDEADYYCTSYTSSRLVLFGGGTKLTVL
binding result [15]: no binding (tested: 0.1 ug/mL) | EC50 [11]: 0.068 nM | EC50 [16]: 0.113 nM | binding result [17]: no binding (tested: 10000 ng/ml) | binding result [6]: no binding (tested: 10000 ng/ml) | binding result [7]: no binding (tested: 10000 ng/ml) | Kd [18]: 0.398 nM
